Measurements published in publication PMC7969019 (Nucleic Acids Research, 2020).
Where no end group is shown, it is not given here. [ ]: non-standard residue; d: D form. pT = C[C@@H](OP(=O)(O)O)[C@H](N)C(=O)O; pS = N[C@@H](COP(=O)(O)O)C(=O)O

T1: human TFIIH p62 residues 1-158 (tandem PH and BSD1 domains) (human, UniProt P32780 1-158)
T1 sequence (looked up): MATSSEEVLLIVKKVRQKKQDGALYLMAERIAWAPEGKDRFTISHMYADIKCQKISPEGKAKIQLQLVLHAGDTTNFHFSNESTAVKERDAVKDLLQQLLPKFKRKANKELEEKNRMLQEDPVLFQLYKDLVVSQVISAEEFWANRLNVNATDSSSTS


target: T1, human TFIIH p62 residues 1-158 (tandem …); experiment: NMR titration

Binder	binding result
TFIIEα (residues 378-439), acidic domain (domain or fragment, UniProt P29083 378-439, looked up) EEDEEEDDEFEEVADDPIVMVAGRPFSYSEVSQRPELVAQMTPEEKEAYIAMGQRMFEDLFE	binds
DDLML[pS]PDDIEQWF[pT]EDPGPDE (peptide, UniProt P04637 41-62, looked up) [Ser46- and Thr55-phosphorylated p53 (residues 41-62)]	binds
EEEEESENDWEEVEELSEP (peptide, UniProt Q01831 124-142, looked up) [XPC (residues 124-142)]	binds
AEEDEDDEDFVEVPEKEGYEP (peptide, UniProt Q2YD98 399-419, looked up) [UVSSA (residues 399-419)]	binds
